Experiments:
[1] = molecular target: Cdk7(R167A)/Cyclin H binary complex (human, UniProt P50613 2-346; P51946 1-323, R167A); test: cell-based or functional assay
[2] = molecular target: T1, wild-type Cdk7/Cyclin H binary complex, doubly phosphorylated (human, UniProt P50613 2-346; P51946 1-323, phosphoserine at 164; phosphothreonine at 170 | M1 acetylated); test: cell-based or functional assay
[3] = molecular target: T1, wild-type Cdk7/Cyclin H binary complex, …; test: SPR; MBP-Mat1(230-309) (15 nM) captured by anti-MBP antibody amine-coupled to a CM5 chip; Cdk7/Cyclin H complexes as analyte, multi-cycle kinetics, up to 150 nM, association 180 s, dissociation 900 s; 25 °C; 10 mM HEPES pH 7.4, 150 mM NaCl, 0.05% Tween20; steady-state affinity fit; Biacore 8K; conditions: both partners purified
Mat1 (230-309) = molecular target: T2, Mat1 (230-309) (human, UniProt P51948); test: crystal structure; Cdk7/Cyclin H/Mat1(230-309) mixed 1:1 with VHH RD7-04, with 1 mM ADP/Mg2+; hanging drop, 0.1 M Hepes pH 7.0, PEG 6K/4K, 15 °C; 2.15 Å; conditions: both partners purified
T2 construct: also called C-terminal fragment of Mat1; source: lysate pooled with GST-Cdk7/Cyclin H lysate; purified (MBPTrap, TEV, SEC, reverse MBP and GST); not shown: MBP, N-terminal, cleaved

T1 sequence (P50613 2-346, chain 1 of 2): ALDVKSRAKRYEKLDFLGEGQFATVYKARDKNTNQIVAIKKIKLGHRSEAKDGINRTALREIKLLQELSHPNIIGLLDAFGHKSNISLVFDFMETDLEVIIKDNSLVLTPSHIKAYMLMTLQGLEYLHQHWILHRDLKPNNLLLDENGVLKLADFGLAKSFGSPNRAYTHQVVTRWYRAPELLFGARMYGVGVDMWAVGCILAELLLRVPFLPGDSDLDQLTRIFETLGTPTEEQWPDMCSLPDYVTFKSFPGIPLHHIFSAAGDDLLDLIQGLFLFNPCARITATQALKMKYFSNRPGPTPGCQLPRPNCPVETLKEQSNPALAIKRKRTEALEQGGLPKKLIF
T1 sequence (P51946 whole entry, chain 2 of 2): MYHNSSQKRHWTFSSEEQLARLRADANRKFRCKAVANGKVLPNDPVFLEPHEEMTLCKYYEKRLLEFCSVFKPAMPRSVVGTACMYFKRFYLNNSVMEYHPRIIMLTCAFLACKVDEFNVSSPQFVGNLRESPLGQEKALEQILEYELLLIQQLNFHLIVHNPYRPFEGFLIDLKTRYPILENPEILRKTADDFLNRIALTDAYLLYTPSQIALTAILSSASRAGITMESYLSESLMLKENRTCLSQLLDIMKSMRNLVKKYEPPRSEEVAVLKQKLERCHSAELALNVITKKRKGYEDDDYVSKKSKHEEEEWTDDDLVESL
Sequence of Cdk7(R167A)/Cyclin H binary complex (P50613 2-346 R167A, chain 1 of 2): as the sequence (P50613 2-346, chain 1 of 2) above, with R166A counted along it
Sequence of Cdk7(R167A)/Cyclin H binary complex (P51946 whole entry, chain 2 of 2): as the sequence (P51946 whole entry, chain 2 of 2) above

Binder	stimulation of kinase activity by Mat1 addition, normalized to the complex without Mat1 (Fig. 3f) [1] [fold]	stimulation of kinase activity by Mat1 addition, normalized to the complex without Mat1 (Fig. 3f) [2] [fold]	Kd [3] [nM]	binding result (Mat1 (230-309))
MBP-Mat1_(230-309) (domain or fragment, human, UniProt P51948 230-309, looked up, source: Sf9 (baculovirus), expressed separately from Cdk7/Cyclin H; purified as an MBP fusion protein; also in lysate (pooled with GST-Cdk7/Cyclin H lysate); not shown: MBP, N-terminal, kept) GQHISLAPIHKLEEALYEYQPLQIETYGPHVPELEMLGRLGYLNHVRAASPQDLAGGYTSSLACHRALQDAFSGLFWQPS	~5	~10	9.8	
VHH_(RD7-04), form for co-crystallization (VHH, nanobody chain of the deposited structure PDB 8PYR; Expression construct pelB-His6-TEV-NB in a modified pET28a vector; also called nanobody VHH RD7-04; chaperoning nanobody; source: E. coli BL21 (DE3), periplasmic extract, purified (HisTrap, TEV, SEC, reverse Ni-NTA); not shown: His6, N-terminal, cleaved) VHH: QVQLVESGGGLVQPGGSLRLSCVASGFTFKNFYMGWVRQAPDKGLEWVATINSGGEIQSYADSVKGRFTISRDNAKNTLYLQMNNLRPEDTAVYYCSKQSSTPAKGQGTQVTVSS				binds

Reference: article PMC11297931, “Structural basis of Cdk7 activation by dual T-loop phosphorylation” (Nature Communications, 2024)
